From patent US20150132307A1 (Hoffmann-La Roche, published 2015)

What was measured:
[1] = target: T1, Human recombinant soluble TWEAK (Example 6) (human, UniProt O43508 99-249, limits assumed); experiment: cell-based or functional assay
T1 sequence: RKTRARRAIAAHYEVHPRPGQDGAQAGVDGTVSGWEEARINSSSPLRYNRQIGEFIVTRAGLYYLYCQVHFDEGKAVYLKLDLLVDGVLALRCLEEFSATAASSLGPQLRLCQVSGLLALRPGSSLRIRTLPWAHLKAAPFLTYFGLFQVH

[2] = target: T2, Mouse soluble TWEAK (untagged, Example 5) (mouse, UniProt O54907 105-249, limits assumed); experiment: receptor interaction ELISA: mouse soluble TWEAK preincubated with antibody, then on coated mouse Fn14:Fc (competitor m22)
T2 construct: also called Murine TWEAK
T2 sequence: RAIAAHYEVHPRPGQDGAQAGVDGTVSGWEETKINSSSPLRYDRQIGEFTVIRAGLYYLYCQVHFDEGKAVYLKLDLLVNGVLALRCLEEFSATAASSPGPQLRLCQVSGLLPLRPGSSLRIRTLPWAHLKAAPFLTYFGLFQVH
Protocol: (§1) Briefly, Maxisorp plates were coated with mouse Fn14:Fc (extracellular domain of mouse Fn14 (amino acids 1-75 of SEQ ID NO: 98) fused to Fc portion of human IgG1) as described above for human Fn14:Fc, followed by blocking and washing. […] After 1 h of incubation at room temperature and four washes, biotinylated anti-mouse TWEAK antibody at 125 ng/ml in blocking buffer was added for 1 h at room temperature, followed by another four wash steps. The TWEAK antibody was detected by incubation with streptavidin-HRP, diluted 1:5000 in blocking buffer, for 30 minutes at room temperature. Signal was developed and absorbance measured as described above.

human Tweak-Fc [3] = target: T3, human Tweak-Fc (human, UniProt O43508 106-249, limits assumed); experiment: SPR (BIAcore T100), TWEAK ligand (Tweak-Fc) amine-coupled on C1 chip, antibody as analyte, 25 C, 1:1 model
T3 construct: not shown: Fc part
T3 sequence: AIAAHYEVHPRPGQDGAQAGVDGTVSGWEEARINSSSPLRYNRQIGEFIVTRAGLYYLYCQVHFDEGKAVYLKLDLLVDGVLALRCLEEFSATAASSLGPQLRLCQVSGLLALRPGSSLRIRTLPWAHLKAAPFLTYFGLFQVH
Protocol: (§2) Around 100 resonance units (RU) of TWEAK was immobilized on the C1 chip surface at pH 5.0 using an amine coupling kit supplied by the GE Healthcare. The sample and system buffer was PBS-T (10 mM phosphate buffered saline including 0.05% Tween20) pH 7.4. Association was measured by injection the bispecific antibody in various concentrations in solution for 3 min at a flow of 30 μl/min starting with 50 nM in 1:1 dilutions. The dissociation phase was monitored for up to 10 min and triggered by switching from the sample solution to running buffer. The surface was regenerated by three times 30 sec. washing with a 3M MgCl2 solution at a flow rate of 30 μl/min. Bulk refractive index differences were corrected by subtracting the response obtained from a blank-coupled surface. Blank injections are also subtracted (=double referencing). For calculation of apparent KD and other kinetic parameters the Langmuir 1:1 model was used.

human Tweak-Fc [4] = target: T3, human Tweak-Fc; experiment: SPR (BIAcore T100), TWEAK ligand (Tweak-Fc) amine-coupled on C1 chip, antibody as analyte, 25 C, apparent KD, 1:1 model
[5] = target: T4, Recombinant human TWEAK (R&D Systems; Cat. #1090-TW/CF) (human, UniProt O43508 97-249, limits assumed); experiment: cell-based or functional assay
T4 sequence: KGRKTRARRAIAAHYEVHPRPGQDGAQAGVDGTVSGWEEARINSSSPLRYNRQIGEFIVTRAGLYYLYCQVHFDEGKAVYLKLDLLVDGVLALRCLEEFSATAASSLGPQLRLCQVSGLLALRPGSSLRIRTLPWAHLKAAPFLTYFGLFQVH

human Tweak-Fc [6] = target: T3, human Tweak-Fc; experiment: SPR (BIAcore T100), TWEAK ligand (Tweak-Fc) amine-coupled on C1 chip, antibody as analyte, 25 C
Protocol: as §2

[7] = target: T5, Biotinylated human soluble TWEAK (amino acids 99-249 of SEQ ID NO: 68) (human, UniProt O43508 99-249, biotinylated); experiment: SPR (Biacore), biotinylated soluble TWEAK on streptavidin chip, 25 C
T5 construct: also called Human TWEAK
T5 sequence: T1 sequence
Protocol: (§3) A Biacore 2000 instrument was used with a Biacore streptavidin coated sensor mounted into the system. The system buffer HBS-ET (10 mM HEPES pH 7.4, 150 mM NaCl, 1 mM EDTA, 0.05% Tween® 20) was used at a flow rate of 100 μl/min. The sample buffer was the system buffer. Biotinylated human soluble TWEAK (amino acids 99-249 of SEQ ID NO: 68) and biotinylated murine soluble TWEAK (amino acids 81-225 of SEQ ID NO: 69) was immobilized on different flow cells on the SA sensor at 150 RU each. The flow cell FC1 was used as a blank reference cell. Each antibody was injected into the system as an analyte at 100 nM at 100 μl/min for 2 min association time. The dissociation of the immunecomplexes were monitored for 5 min. The sensor surface was washed with HBS-ET for 10 seconds and regenerated using 2×2 minutes injections with 10 mM glycine pH 2.25. This procedure was done at 25° C. The kinetically rate limiting step of the complex dissociation phase in the interval [240 s-300 s] was taken to calculate the dissociation rate kd [1/s] (Biacore Evaluation Software 4.0). According to the equation t1/2 diss=ln(2)/(60×kd), the half-life of the immunocomplexes in minutes was calculated.

[8] = target: T6, human Flag-tagged soluble TWEAK (amino acids 106-249) (human, UniProt O43508 106-249); experiment: receptor interaction ELISA: Flag-TWEAK preincubated with antibody, then on coated human Fn14:Fc (competitor m21)
T6 construct: The sentence gives amino acids 106-249 without naming the entry; also called Human TWEAK; not shown: Flag tag
T6 sequence: T3 sequence
Protocol: (§4) 96-well Maxisorp® plates (Nunc) were coated with 100 μl 1 μg/ml human Fn14:Fc (extracellular domain of human Fn14 (amino acids 1-75 of SEQ ID NO: 98) fused to Fc portion of human IgG1) in PBS per well for 1.5 h at room temperature and blocked with a solution of 5% FBS in PBS for 30 minutes at room temperature under shaking. […] After washing the Fn14-coated plate once with wash buffer (0.1% Tween® 20 in PBS), 100 μl of the TWEAK-antibody solution were transferred to each well and the plate was incubated for 1 h at room temperature, followed by four washes with wash buffer. Wells were filled with 100 μl of anti-FLAG-HRP detection antibody, diluted 1:5000 in blocking buffer, and incubated for 1 h at room temperature. After four more wash steps, the signal was developed by addition of 100 μl 3,3,5,5-Tetramethylbenzidine (TMB) solution for approximately ten minutes. The reaction was stopped by adding 100 μl of 1 N HCl, and absorbance measured at 450 nm (reference wavelength 620 nm).

[9] = target: T5, Biotinylated human soluble TWEAK (amino …); experiment: SPR (Biacore), biotinylated soluble TWEAK on streptavidin chip, 37 C
human Tweak-Fc [10] = target: T3, human Tweak-Fc; experiment: SPR (BIAcore T100), TWEAK ligand (Tweak-Fc) amine-coupled on C1 chip, Fab as analyte, 25 C
human Tweak-Fc [11] = target: T3, human Tweak-Fc; experiment: SPR (BIAcore T100), TWEAK ligand (Tweak-Fc) amine-coupled on C1 chip, Fab as analyte, 25 C, apparent KD, 1:1 model
Protocol: as §2

human Tweak-Fc [12] = target: T3, human Tweak-Fc; experiment: SPR (BIAcore T100), TWEAK ligand (Tweak-Fc) amine-coupled on C1 chip, Fab as analyte, 25 C, 1:1 model
[13] = target: T2, Mouse soluble TWEAK (untagged, Example …); experiment: receptor interaction ELISA: mouse soluble TWEAK 4 ng/ml preincubated with antibody, then on coated mouse Fn14:Fc (competitor m22)
Protocol: as §1

[14] = target: T7, Biotinylated TWEAK (Example 7) (Homo sapiens (Human), UniProt O43508 99-249, Biotinylated (sites not given), captured on a streptavidin chip. The active form is a soluble homotrimer; one protomer is given.); experiment: Biacore crossblocking on immobilised biotinylated TWEAK; antibody 2 injected after saturating antibody 1 = TW-301chi (competitor m4), 100 nM each
T7 sequence: T1 sequence
Protocol: (§5) Because of the individual biochemical properties of the TWEAK protein another method had to be developed using TWEAK as ligand. Biotinylated TWEAK was immobilized on the streptavidin-coated chip surface and epitope coverage of consecutively injected antibodies (antibody 1) was measured. The aim was to detect the relative binding levels of a secondary antibody (antibody 2) in the presence of an already bound primary antibody. From these relative binding levels a quotient was calculated (Ab2/Ab1, molar ratio given in %, table 3).
(§6) 5 nM of biotinylated TWEAK was immobilized at 20 μl/min for 1 min on a streptavidin coated sensor flow cell. Primary and secondary mAbs were consecutively injected at 10 μl/min for 4 min into the system at 100 nM each until saturation of the respective TWEAK epitopes was achieved. As a reference an SA coated flow cell was used.

[15] = target: T1, Human recombinant soluble TWEAK …; experiment: cell-based or functional assay; remark: listed apart in the source
[16] = target: T7, Biotinylated TWEAK (Example 7); experiment: Biacore crossblocking on immobilised biotinylated TWEAK; antibody 2 injected after saturating antibody 1 = TW-304chi (competitor m5), 100 nM each
Protocol: as §5, §6

[17] = target: T6, human Flag-tagged soluble TWEAK (amino …); experiment: receptor interaction ELISA: Flag-TWEAK 2.5 ng/ml preincubated with antibody, then on coated human Fn14:Fc (competitor m21)
Protocol: as §4

[18] = target: T5, Biotinylated human soluble TWEAK (amino …); experiment: SPR (Biacore 2000), biotinylated soluble TWEAK on streptavidin chip, antibody 100 nM as analyte, 25 C
Protocol: as §3

[19] = target: T7, Biotinylated TWEAK (Example 7); experiment: Biacore crossblocking on immobilised biotinylated TWEAK; antibody 2 injected after saturating antibody 1 = TW-305chi (competitor m6), 100 nM each
Protocol: as §5, §6

B1: Humanized <TWEAK> 305- antibody 27 (antibody, V domains shown)
VH: QVQLVQSGAEVKKPGSSVKVSCKASGFDFSTYYMSWVRQAPGQGLEWMGTVYVRQGTTYYASWLNGRVTITADESTSTAYMELSSLRSEDTAVYYCARGGYNYDDAFVIWGQGTLVTVSS
VL: DIQMTQSPSSVSASVGDRVTITCQASQNIYSNLAWYQQKPGKAPKLLIYTASYLASGVPSRFSGSGSGTDYTLTISSLQPEDFATYYCQTAYYNSRPDTVAFGGGTKVEIK
Inhibition of IL8-Secretion [ng/ml] (A375 cells) [1]: 197 ng/mL
IC50 [2]: 8.2 ng/mL
koff (human Tweak-Fc [3]): 5.71e-05 s⁻¹
kon (human Tweak-Fc [3]): 2.27e+06 M⁻¹ s⁻¹
Kd (human Tweak-Fc [4]): 25.2 pM
IC50 (nM) per valency, Tweak induced HFLS proliferation (CellTiter Glo) [5]: 0.152 nM
T½ (human Tweak-Fc [6]): 3.37 h
Biacore t/2 diss. [min] 25° C. human [7]: 110 min
IC50 [8]: 2.3 ng/mL
Biacore t/2 diss. [min] 37° C. human [9]: 147 min

B2: <TWEAK>305 (antibody 27) -Fab (Fab, V domains shown)
VH: B1 VH
VL: B1 VL
T½ (human Tweak-Fc [10]): 2.72 h
Kd (human Tweak-Fc [11]): 15 pM
koff (human Tweak-Fc [12]): 7.09e-05 s⁻¹
kon (human Tweak-Fc [12]): 4.72e+06 M⁻¹ s⁻¹

B3: <TWEAK> 301chi (antibody, human IgG1, kappa, V domains shown)
VH: QSLEESGGGLVKPGASLTLTCTASGFTFNANYWICWVRQAPGKGLEWIACIYGGGNSGAYYASWATGRFTISRTSSTTVTLQMTSLTAADTATYFCARGPISRDLWGPGTLVTVSL
VL: DVVMTQTPASVSEPVGGTVTIKCQASQSIYSSLAWYQQKPGQPPKLLIYDAFDLASGVSSRFTGSGSGTQFTLTISDLECADAATYYCQSTDYGNSWDGNPFGGGTEVVVTR
IC50 [13]: 6.4 ng/mL
MR % (Ab2/Ab1, molar ratio) [14]: 0%
Inhibition of IL-8 Secretion IC50 [ng/ml] (A375 cells) [15]: 121 ng/mL
MR % (Ab2/Ab1, molar ratio) [16]: 0%
IC50 [17]: 2.8 ng/mL
t/2 diss [min] 25° C. [18]: 110 min
MR % (Ab2/Ab1, molar ratio) [19]: 0%
